Data from US20190225692A1 (JUNO THERAPEUTICS, published 2019).

Columns and labels:
[1] = biological target: T1, HLA-A2/E6 (29-38) tetramer (human; HPV 16); assay: tetramer staining of clonal T cell line, flow cytometry
T1 construct: also called E6(29-38) peptide-MHC tetramer; E6(29-38)-loaded tetramer

[2] = biological target: HPV 16 E7(11-19) peptide in the context of HLA-A02:01 on target cells (human; HPV 16); assay: cell-based or functional assay
[3] = biological target: HPV 16 E6(29-38) peptide in the context of HLA-A02:01 on target cells (human; HPV 16); assay: cell-based or functional assay
[4] = biological target: T1, HLA-A2/E6 (29-38) tetramer; assay: tetramer flow cytometry; transfected Jurkat-derived cells, CD8+ population
Method: For transfection, the CD4+ and CD4+/CD8+ cell mixtures were transiently transfected with TCR-encoding plasmids and 48 hours after transfection, cells were assessed by flow cytometry for (1) binding of the target peptide in the context of an MHC molecule (HLA:A02:01) by staining with an E6(29-38) peptide- or an E7(11-19) peptide-MHC tetramer reagent, and/or (2) CD8+ independent binding of the target by co-staining the tetramer-labeled cells with an anti-CD8 antibody.

| Binder | binding result [1] | % CD8+/IC IFNγ+; transduced primary CD8+ T cells with T2 cells pulsed with 10 uM E7(11-19) peptide (control peptide), E:T 10:1, 4 h [2] [%] | % CD8+/IC IFNγ+; transduced primary CD8+ T cells with T2 cells pulsed with 10 uM E6(29-38) peptide, E:T 10:1, 4 h [3] [%] | % cells in E6 tet+/CD8+ quadrant [4] [%] | % cells in E6 tet+/CD8- quadrant [4] [%] | % cells in E6 tet-/CD8+ quadrant [4] [%] | % cells in E6 tet-/CD8- quadrant [4] [%] |
| --- | --- | --- | --- | --- | --- | --- | --- |
| TCR 10 (native, expressed by clonal T cell line) (TCR, V domains shown) V domain 1: RKEVEQDPGPFNVPEGATVAFNCTYSNSASQSFFWYRQDCRKEPKLLMSVYSSGNEDGRFTAQLNRASQYISLLIRDSKLSDSATYLCVVNFPSRGAGGTSYGKLTFGQGTILTVHP V domain 2: DVKVTQSSRYLVKRTGEKVFLECVQDMDHENMFWYRQDPGLGLRLIYFSYDVKMKEKGDIPEGYSVSREKKERFSLILESASTNQTSMYLCASSLSLTGNYGYTFGSGTRLTVVE | binds | – | – | – | – | – | – |
| modified version of TCR 8 (codon optimized, cysteine modified) (TCR, V domains shown) V domain 1: KQEVTQIPAALSVPEGENLVLNCSFTDSAIYNLQWFRQDPGKGLTSLLLIQSSQREQTSGRLNASLDKSSGRSTLYIAASQPGDSATYLCAVRPLGNTPLVFGKGTRLSVIA V domain 2: KVTQSSRYLVKRTGEKVFLECVQDMDHENMFWYRQDPGLGLRLIYFSYDVKMKEKGDIPEGYSVSREKKERFSLILESASTNQTSMYLCASSLWGASTDTQYFGPGTRLTVLE | – | 11.4 | 95 | – | – | – | – |
| modified version of TCR 9 (codon optimized, cysteine modified) (TCR) TCR alpha: AQKITQTQPGMFVQEKEAVTLDCTYDTSDPSYGLFWYKQPSSGEMIFLIYQGSYDQQNATEGRYSLNFQKARKSANLVISASQLGDSAMYFCAMRTAGGTSYGKLTFGQGTILTVHPNIQNPDPAVYQLRDSKSSDKSVCLFTDFDSQTNVSQSKDSDVYITDKCVLDMRSMDFKSNSAVAWSNKSDFACANAFNNSIIPEDTFFPSPESSCDVKLVEKSFETDTNLNFQNLSVIGFRILLLKVAGFNLLMTLRLWSS TCR beta: NAGVTQTPKFRVLKTGQSMTLLCAQDMNHEYMYWYRQDPGMGLRLIHYSVGEGTTAKGEVPDGYNVSRLKKQNFLLGLESAAPSQTSVYFCASSYFGTAYEQYFGPGTRLTVTEDLKNVFPPEVAVFEPSEAEISHTQKATLVCLATGFYPDHVELSWWVNGKEVHSGVCTDPQPLKEQPALNDSRYCLSSRLRVSATFWQNPRNHFRCQVQFYGLSENDEWTQDRAKPVTQIVSAEAWGRADCGFTSESYQQGVLSATILYEILLGKATLYAVLVSALVLMAMVKRKDSRG | – | 19.5 | 91.1 | 42.5 | 0.051 | 55.6 | 1.89 |
